Test results taken from paper PMC3807590.
One block for each substance: values may come before it.

Legend:
[1] = molecular target: Chicken skeletal muscle α-actin (F-actin, unlabeled) (chicken) (UniProt P68139); assay: co-sedimentation; increasing tropomyosin (0-10 µM) mixed with 5 µM actin in F-buffer (2 mM HEPES, pH 7.6, 40 mM NaCl, 5 mM MgCl2) at 22°C, ultracentrifuged; supernatants and pellets on SDS-PAGE; apparent constants (Kapp)
[2] = molecular target: Chicken skeletal muscle α-actin (F-actin, unlabeled) (chicken) (UniProt P68139)
[3] = molecular target: Chicken skeletal muscle α-actin labeled with DABMI at Cys374 (chicken) (UniProt P68139)

Ka [1]: 1.27e+07 M⁻¹
Substance: Chimeric rat α-tropomyosin TM1b9a

Ka [1]: 1.49e+07 M⁻¹
Substance: Ser232Cys-TM5a labeled with AEDANS (natural protein)

Actin–myosin S1 ATPase activity in the presence of TM1b9a/A232C; 0.8 µM S1, 9.2 µM F-actin, 1.2 µM tropomyosin (nmol Pi/mg S1/min) [2]: 126
Actin–myosin S1 ATPase activity in the presence of TM1b9a; 0.8 µM S1, 9.2 µM F-actin, 1.2 µM tropomyosin (nmol Pi/mg S1/min) [2]: 108
Actin–myosin S1 ATPase activity in the presence of TM2/S269C; 0.8 µM S1, 9.2 µM F-actin, 1.2 µM tropomyosin (nmol Pi/mg S1/min) [2]: 112
Actin–myosin S1 ATPase activity in the presence of TM2; 0.8 µM S1, 9.2 µM F-actin, 1.2 µM tropomyosin (nmol Pi/mg S1/min) [2]: 91.7
Actin–myosin S1 ATPase activity in the presence of TM5a/S232C; 0.8 µM S1, 9.2 µM F-actin, 1.2 µM tropomyosin (nmol Pi/mg S1/min) [2]: 184
Actin–myosin S1 ATPase activity in the presence of TM5a; 0.8 µM S1, 9.2 µM F-actin, 1.2 µM tropomyosin (nmol Pi/mg S1/min) [2]: 169
Actin–myosin S1 ATPase activity in the presence of skTM/A269C; 0.8 µM S1, 9.2 µM F-actin, 1.2 µM tropomyosin (nmol Pi/mg S1/min) [2]: 104
Actin–myosin S1 ATPase activity in the presence of skTM; 0.8 µM S1, 9.2 µM F-actin, 1.2 µM tropomyosin (nmol Pi/mg S1/min) [2]: 103
S1/actin molar ratio of strongly bound myosin heads required for half-maximal change in FRET between AEDANS-TM1b9a/A232C and DABMI-actin (S1/actin molar ratio) [3]: 0.14
S1/actin molar ratio of strongly bound myosin heads required for half-maximal change in FRET between AEDANS-TM2/S269C and DABMI-actin (S1/actin molar ratio) [3]: 0.12
S1/actin molar ratio of strongly bound myosin heads required for half-maximal change in FRET between AEDANS-TM5a/S232C and DABMI-actin (S1/actin molar ratio) [3]: 0.08
S1/actin molar ratio of strongly bound myosin heads required for half-maximal change in FRET between AEDANS-skTM/A269C and DABMI-actin (S1/actin molar ratio) [3]: 0.15
Substance: Chicken skeletal myosin subfragment 1 (S1) (domain or fragment)

Ka [1]: 2.25e+07 M⁻¹
Substance: Recombinant rat non-muscle α-tropomyosin isoform TM2 (natural protein)

More lines, now with the values behind:

Substance: Recombinant rat non-muscle α-tropomyosin isoform TM5a (natural protein)
Ka [1]: 1.42e+07 M⁻¹

Substance: Ser269Cys-TM2 labeled with AEDANS (natural protein)
Ka [1]: 2.04e+07 M⁻¹

Substance: Ala232Cys-TM1b9a labeled with AEDANS
Ka [1]: 1.24e+07 M⁻¹
